Consider 22 variants from IntAct's records for PubMed 31515488.

B1: Antiviral innate immune response effector IFIT1 (Homo sapiens), P09914 (parent)
chain: MSTNGDDHQVKDSLEQLRCHFTWELSIDDDEMPDLENRVLDQIEFLDTKYSVGIHNLLAYVKHLKGQNEEALKSLKEAENLMQEEHDNQANVRSLVTWGNFAWMYYHMGRLAEAQTYLDKVENICKKLSNPFRYRMECPEIDCEEGWALLKCGGKNYERAKACFEKVLEVDPENPESSAGYAISAYRLDGFKLATKNHKPFSLLPLRQAVRLNPDNGYIKVLLALKLQDEGQEAEGEKYIEEALANMSSQTYVFRYAAKFYRRKGSVDKALELLKKALQETPTSVLLHHQIGLCYKAQMIQIKEATKGQPRGQNREKLDKMIRSAIFHFESAVEKKPTFEVAHLDLARMYIEAGNHRKAEENFQKLLCMKPVVEETMQDIHFHYGRFQEFQKKSDVNAIIHYLKAIKIEQASLTRDKSINSLKKLVLRKLRRKALDLESLSLLGFVYKLEGNMNEALEYYERALRLAADFENSVRQGP
partner: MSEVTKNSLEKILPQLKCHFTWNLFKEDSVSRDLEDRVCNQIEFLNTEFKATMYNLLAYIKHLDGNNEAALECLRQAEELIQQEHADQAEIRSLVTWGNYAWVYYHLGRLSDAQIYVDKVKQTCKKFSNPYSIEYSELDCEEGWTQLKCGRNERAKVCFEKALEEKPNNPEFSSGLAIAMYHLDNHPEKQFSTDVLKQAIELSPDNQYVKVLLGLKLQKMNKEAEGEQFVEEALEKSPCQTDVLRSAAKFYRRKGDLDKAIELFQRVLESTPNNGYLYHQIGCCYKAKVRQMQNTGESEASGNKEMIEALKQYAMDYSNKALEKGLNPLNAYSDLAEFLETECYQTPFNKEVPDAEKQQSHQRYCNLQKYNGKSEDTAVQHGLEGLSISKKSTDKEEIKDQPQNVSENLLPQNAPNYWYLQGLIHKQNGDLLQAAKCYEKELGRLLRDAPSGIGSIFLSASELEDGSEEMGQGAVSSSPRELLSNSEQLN
B2: Keratin, type II cytoskeletal 6A (Homo sapiens), P02538 (parent)
chain: MASTSTTIRSHSSSRRGFSANSARLPGVSRSGFSSVSVSRSRGSGGLGGACGGAGFGSRSLYGLGGSKRISIGGGSCAISGGYGSRAGGSYGFGGAGSGFGFGGGAGIGFGLGGGAGLAGGFGGPGFPVCPPGGIQEVTVNQSLLTPLNLQIDPTIQRVRAEEREQIKTLNNKFASFIDKVRFLEQQNKVLETKWTLLQEQGTKTVRQNLEPLFEQYINNLRRQLDSIVGERGRLDSELRGMQDLVEDFKNKYEDEINKRTAAENEFVTLKKDVDAAYMNKVELQAKADTLTDEINFLRALYDAELSQMQTHISDTSVVLSMDNNRNLDLDSIIAEVKAQYEEIAQRSRAEAESWYQTKYEELQVTAGRHGDDLRNTKQEIAEINRMIQRLRSEIDHVKKQCANLQAAIADAEQRGEMALKDAKNKLEGLEDALQKAKQDLARLLKEYQELMNVKLALDVEIATYRKLLEGEECRLNGEGVGQVNISVVQSTVSSGYGGASGVGSGLGLGGGSSYSYGSGLGVGGGFSSSSGRAIGGGLSSVGGGSSTIKYTTTSSSSRKSYKH
partner: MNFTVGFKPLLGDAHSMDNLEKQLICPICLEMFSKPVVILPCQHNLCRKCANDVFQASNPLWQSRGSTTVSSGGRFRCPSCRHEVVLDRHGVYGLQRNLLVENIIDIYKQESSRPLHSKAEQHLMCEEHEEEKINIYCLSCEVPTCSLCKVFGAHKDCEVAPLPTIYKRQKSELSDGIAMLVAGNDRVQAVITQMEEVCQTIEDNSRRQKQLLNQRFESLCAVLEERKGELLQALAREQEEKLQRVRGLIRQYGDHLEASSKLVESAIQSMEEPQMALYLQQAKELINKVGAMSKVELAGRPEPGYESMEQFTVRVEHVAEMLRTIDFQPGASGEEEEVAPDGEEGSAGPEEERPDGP
B3: TNF receptor-associated factor 1 (Homo sapiens), Q13077 (parent)
chain: MASSSGSSPRPAPDENEFPFGCPPTVCQDPKEPRALCCAGCLSENPRNGEDQICPKCRGEDLQSISPGSRLRTQEKAHPEVAEAGIGCPFAGVGCSFKGSPQSVQEHEVTSQTSHLNLLLGFMKQWKARLGCGLESGPMALEQNLSDLQLQAAVEVAGDLEVDCYRAPCSESQEELALQHFMKEKLLAELEGKLRVFENIVAVLNKEVEASHLALATSIHQSQLDRERILSLEQRVVELQQTLAQKDQALGKLEQSLRLMEEASFDGTFLWKITNVTRRCHESACGRTVSLFSPAFYTAKYGYKLCLRLYLNGDGTGKRTHLSLFIVIMRGEYDALLPWPFRNKVTFMLLDQNNREHAIDAFRPDLSSASFQRPQSETNVASGCPLFFPLSKLQSPKHAYVKDDTMFLKCIVETST
B4: Zinc finger protein 581 (Homo sapiens), Q9P0T4 (parent)
chain: MLVLPSPCPQPLAFSSVETMEGPPRRTCRSPEPGPSSSIGSPQASSPPRPNHYLLIDTQGVPYTVLVDEESQREPGASGAPGQKKCYSCPVCSRVFEYMSYLQRHSITHSEVKPFECDICGKAFKRASHLARHHSIHLAGGGRPHGCPLCPRRFRDAGELAQHSRVHSGERPFQCPHCPRRFMEQNTLQKHTRWKHP
partner: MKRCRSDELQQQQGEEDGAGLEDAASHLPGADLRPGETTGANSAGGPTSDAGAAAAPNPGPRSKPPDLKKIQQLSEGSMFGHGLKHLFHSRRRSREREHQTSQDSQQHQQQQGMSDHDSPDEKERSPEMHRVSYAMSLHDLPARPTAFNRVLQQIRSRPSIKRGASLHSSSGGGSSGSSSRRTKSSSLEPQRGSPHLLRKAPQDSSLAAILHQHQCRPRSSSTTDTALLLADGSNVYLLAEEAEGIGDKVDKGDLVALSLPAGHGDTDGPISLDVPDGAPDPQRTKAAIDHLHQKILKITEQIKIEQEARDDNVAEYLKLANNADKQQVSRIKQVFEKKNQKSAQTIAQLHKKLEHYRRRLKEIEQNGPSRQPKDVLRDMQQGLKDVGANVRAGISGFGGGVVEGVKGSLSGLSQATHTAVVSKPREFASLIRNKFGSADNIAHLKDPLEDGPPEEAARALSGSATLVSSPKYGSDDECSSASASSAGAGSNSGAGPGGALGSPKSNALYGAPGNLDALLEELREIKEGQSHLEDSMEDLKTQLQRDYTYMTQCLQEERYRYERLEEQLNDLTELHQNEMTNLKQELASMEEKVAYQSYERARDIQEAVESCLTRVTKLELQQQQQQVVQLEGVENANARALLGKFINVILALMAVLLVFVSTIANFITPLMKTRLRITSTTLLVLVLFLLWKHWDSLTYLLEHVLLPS
B5: Interleukin-1 receptor-associated kinase 4 (Homo sapiens), Q9NWZ3 (parent)
chain: MNKPITPSTYVRCLNVGLIRKLSDFIDPQEGWKKLAVAIKKPSGDDRYNQFHIRRFEALLQTGKSPTSELLFDWGTTNCTVGDLVDLLIQNEFFAPASLLLPDAVPKTANTLPSKEAITVQQKQMPFCDKDRTLMTPVQNLEQSYMPPDSSSPENKSLEVSDTRFHSFSFYELKNVTNNFDERPISVGGNKMGEGGFGVVYKGYVNNTTVAVKKLAAMVDITTEELKQQFDQEIKVMAKCQHENLVELLGFSSDGDDLCLVYVYMPNGSLLDRLSCLDGTPPLSWHMRCKIAQGAANGINFLHENHHIHRDIKSANILLDEAFTAKISDFGLARASEKFAQTVMTSRIVGTTAYMAPEALRGEITPKSDIYSFGVVLLEIITGLPAVDEHREPQLLLDIKEEIEDEEKTIEDYIDKKMNDADSTSVEAMYSVASQCLHEKKNKRPDIKKVQQLLQEMTAS

The variants in the first test derive from B1. The conditions noted are these: with ifit3_human IFIT3, O14879.
Consider A162T, for which the “effect of a mutation on the interaction” value is given as “with no effect”.

On to M453T, for which the “effect of a mutation on the interaction” value is “with no effect”.

The variants in the next test derive from B2. The conditions noted are these: with tri54_human TRIM54, Q9BYV2.
A335T: the “effect of a mutation on the interaction” value was “with no effect”.

For R559G, the “effect of a mutation on the interaction” value is on record as “with no effect”.

T552S: the “effect of a mutation on the interaction” value is on record as “with no effect”.

With V523F, the “effect of a mutation on the interaction” value is “with no effect”.

As to R415H, the “effect of a mutation on the interaction” value is “with no effect”.

Take L210M: the “effect of a mutation on the interaction” value was “with no effect”.

The variants in another test derive from B3. The conditions noted are these: with traf2_human TRAF2, Q12933.
Sequence of traf2_human TRAF2, Q12933 (Q12933 whole entry): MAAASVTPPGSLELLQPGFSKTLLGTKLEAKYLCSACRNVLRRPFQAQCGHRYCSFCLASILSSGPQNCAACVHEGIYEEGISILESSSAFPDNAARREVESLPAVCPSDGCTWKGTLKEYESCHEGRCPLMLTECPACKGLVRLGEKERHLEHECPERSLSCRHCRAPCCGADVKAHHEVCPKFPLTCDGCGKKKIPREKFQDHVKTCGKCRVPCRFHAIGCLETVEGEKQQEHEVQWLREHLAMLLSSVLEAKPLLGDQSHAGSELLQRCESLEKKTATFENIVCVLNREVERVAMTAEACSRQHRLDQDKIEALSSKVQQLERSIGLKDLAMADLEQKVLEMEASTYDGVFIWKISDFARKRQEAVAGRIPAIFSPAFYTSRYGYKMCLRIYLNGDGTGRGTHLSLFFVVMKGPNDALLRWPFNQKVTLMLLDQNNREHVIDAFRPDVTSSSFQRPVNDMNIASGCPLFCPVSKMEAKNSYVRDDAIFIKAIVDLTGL
Consider K193R, for which the “effect of a mutation on the interaction” value is recorded as “with no effect”.

Take R226H: the “effect of a mutation on the interaction” value is on record as “with no effect”.

R226C: the “effect of a mutation on the interaction” value is given as “with no effect”.

In the case of R228H, the “effect of a mutation on the interaction” value was “with no effect”.

Regarding R228C, the “effect of a mutation on the interaction” value is “with no effect”.

On to V208M, for which the “effect of a mutation on the interaction” value was “with no effect”.

Variants of B4 are the subject of the next test. As to conditions: with tmcc2_human TMCC2, O75069.
R143W: the “effect of a mutation on the interaction” value is “with no effect”.

Turning to E32A, the “effect of a mutation on the interaction” value is recorded as “with no effect”.

The variants in a further test derive from B5. The conditions noted are these: with myd88_human MYD88, Q99836.
Sequence of myd88_human MYD88, Q99836 (Q99836 whole entry): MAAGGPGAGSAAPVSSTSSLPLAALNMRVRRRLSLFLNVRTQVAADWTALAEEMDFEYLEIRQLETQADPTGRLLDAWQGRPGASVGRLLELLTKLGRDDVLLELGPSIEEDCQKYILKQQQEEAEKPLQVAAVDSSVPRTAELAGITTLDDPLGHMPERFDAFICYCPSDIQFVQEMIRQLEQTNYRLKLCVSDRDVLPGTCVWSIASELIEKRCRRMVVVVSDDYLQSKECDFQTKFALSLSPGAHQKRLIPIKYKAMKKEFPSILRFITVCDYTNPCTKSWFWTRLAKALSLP
As to D73E, the “effect of a mutation on the interaction” value is on record as “disrupting interaction strength”.

As to G298D, the “effect of a mutation on the interaction” value is on record as “disrupting interaction strength”.

Turning to T76I, the “effect of a mutation on the interaction” value is on record as “disrupting interaction strength”.

On to R12C, for which the “effect of a mutation on the interaction” value is reported as “disrupting interaction strength”.

R12H: the “effect of a mutation on the interaction” value is “disrupting interaction strength”.

With R391H, the “effect of a mutation on the interaction” value was “with no effect”.
